According to patent US20110123544A1 (published 2011):

Tests used:
[1] = target: T1, recombinant human IL-12 (rhIL-12) (human, UniProt P29459 23-219; P29460 23-328); assay: cell-based or functional assay
T1 sequence (looked up) 1: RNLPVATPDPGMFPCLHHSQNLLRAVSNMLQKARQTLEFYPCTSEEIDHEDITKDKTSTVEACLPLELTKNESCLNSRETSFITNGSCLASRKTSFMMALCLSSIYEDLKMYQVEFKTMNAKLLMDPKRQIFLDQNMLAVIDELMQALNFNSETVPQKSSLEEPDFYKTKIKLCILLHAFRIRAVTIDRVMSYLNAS
T1 sequence (looked up) 2: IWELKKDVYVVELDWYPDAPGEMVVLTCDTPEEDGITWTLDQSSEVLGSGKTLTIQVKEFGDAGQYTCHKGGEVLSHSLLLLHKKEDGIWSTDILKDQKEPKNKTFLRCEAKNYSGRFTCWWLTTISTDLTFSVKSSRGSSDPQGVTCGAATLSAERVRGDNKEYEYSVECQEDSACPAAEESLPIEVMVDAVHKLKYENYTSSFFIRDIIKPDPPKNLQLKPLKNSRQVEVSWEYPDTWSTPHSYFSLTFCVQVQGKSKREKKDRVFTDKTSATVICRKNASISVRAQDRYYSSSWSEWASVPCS

[2] = target: T1, recombinant human IL-12 (rhIL-12); assay: BIAcore (SPR) off-rate on IL-12 chip
Source text: The system utilizes the optical properties of SPR to detect alterations in protein concentrations within a dextran biosensor matrix. Proteins are covalently bound to the dextran matrix at known concentrations. […] To determine the off rate (koff), on rate (kₒₙ), association rate (Ka) and dissociation rate (Kd) constants, BIAcore kinetic evaluation software (version 2.1) was used.

B1: 136-15 (scFv, V domains shown)
VH: QVQLVQSGGGVVQPGRSLRLSCAASGFTFSSYGMHWVRQAPGKGLEWVAFIRYDGSNKYYADSVKGRFTISRDNSKNTLYLQMKSLRAEDTAVYYCKTHGSHDNWGQGTMVTVSS
VL: SYVLTQPPSVSGTPGQRVTISCSGSRSNIGSNTVKWYQQLPGTAPKLLIYGNDQRPSGVPDRFSGSKSGTSASLAITGVQAEDEADYYCQTYDKGFTGSSVFGTGTKVTVLG
**Q.** Which “PHA assay IC50 (M) p70:p40 1:20” value [1] does the source give for B1 here?
**A.** 5e-09 M

**Q.** And the “PHA assay IC50 (M) p70:p40 1:50” value [1]?
**A.** 4e-09 M

B2: 99-H7 (scFv, V domains shown)
VH: QVQLVQSGGGVVQPGRSLRLSCAASGFTFSSYGMHWVRQAPGKGLEWVAFIRYDGSNKYYADSVKGRFTISRDNSKNTLYLQMKSLRAEDTAVYYCKTHGSHDNWGQGTMVTVSS
VL: SYVLTQPPSVSGTPGQRVTISCSGGRSNIGSNTVKWYQQLPGTAPKLLIYGNDQRPSGVPDRFSGSKSGTSASLAITGVQAEDEADYYCQSYPDGTPASRVFGTGTKVTVLG
**Q.** B2 was tested. Which koff [2] did it give?
**A.** 0.0033 s⁻¹

B3: 99-F8 (scFv, V domains shown)
VH: QVQLVQSGGGVVQPGRSLRLSCAASGFTFSSYGMHWVRQAPGKGLEWVAFIRYDGSNKYYADSVKGRFTISRDNSKNTLYLQMKSLRAEDTAVYYCKTHGSHDNWGQGTMVTVSS
VL: SYVLTQPPSVSGTPGQRVTISCSGGRSNIGSNTVKWYQQLPGTAPKLLIYGNDQRPSGVPDRFSGSKSGTSASLAITGVQAEDEADYYCQSYIRAPQQVFGTGTKVTVLG
**Q.** With B3 as the binder, how does the koff [2] read?
**A.** 0.0037 s⁻¹

B4: 99-H4 (scFv, V domains shown)
VH: QVQLVQSGGGVVQPGRSLRLSCAASGFTFSSYGMHWVRQAPGKGLEWVAFIRYDGSNKYYADSVKGRFTISRDNSKNTLYLQMKSLRAEDTAVYYCKTHGSHDNWGQGTMVTVSS
VL: SYVLTQPPSVSGTPGQRVTISCSGGRSNIGSNTVKWYQQLPGTAPKLLIYGNDQRPSGVPDRFSGSKSGTSASLAITGVQAEDEADYYCQSYDSRFTGSRVFGTGTKVTVLG
**Q.** With B4 as the binder, how does the koff [2] read?
**A.** 0.0048 s⁻¹

B5: 149-5 (scFv, V domains shown)
VH: QVQLVQSGGGVVQPGRSLRLSCAASGFTFSSYGMHWVRQAPGKGLEWVAFIRYDGSNKYYADSVKGRFTISRDNSKNTLYLQMKSLRAEDTAVYYCTTHGSHDTWGQGTMVTVSS
VL: SYVLTQPPSVSGTPGQRVTISCSGGRSNIGSNTVKWYQQLPGTAPKLLIYGNDQRPSGVPDRFSGSKSGTSASLAITGVQAEDEADYYCQSYDSSLWGTRVFGTGTKVTVLG
**Q.** Which “PHA assay IC50 (M) p70:p40 1:0” value [1] does the source give for B5 here?
**A.** 6.5e-09 M

**Q.** And the “PHA assay IC50 (M) p70:p40 1:20” value [1]?
**A.** 7e-09 M

**Q.** What about the “PHA assay IC50 (M) p70:p40 1:50” value [1] of the same binder?
**A.** 4e-09 M

B6: 99-F6 (scFv, V domains shown)
VH: QVQLVQSGGGVVQPGRSLRLSCAASGFTFSSYGMHWVRQAPGKGLEWVAFIRYDGSNKYYADSVKGRFTISRDNSKNTLYLQMKSLRAEDTAVYYCKTHGSHDNWGQGTMVTVSS
VL: SYVLTQPPSVSGTPGQRVTISCSGGRSNIGSNTVKWYQQLPGTAPKLLIYGNDQRPSGVPDRFSGSKSGTSASLAITGVQAEDEADYYCQSYDSGSTGSRVFGTGTKVTVLG
**Q.** Which koff [2] does the source give for B6 here?
**A.** 0.0049 s⁻¹

B7: 99-H11 (scFv, V domains shown)
VH: QVQLVQSGGGVVQPGRSLRLSCAASGFTFSSYGMHWVRQAPGKGLEWVAFIRYDGSNKYYADSVKGRFTISRDNSKNTLYLQMKSLRAEDTAVYYCKTHGSHDNWGQGTMVTVSS
VL: SYVLTQPPSVSGTPGQRVTISCSGGRSNIGSNTVKWYQQLPGTAPKLLIYGNDQRPSGVPDRFSGSKSGTSASLAITGVQAEDEADYYCQSYSTHMPISRVFGTGTKVTVLG
**Q.** How did the koff [2] turn out when B7 was run?
**A.** 0.0049 s⁻¹

B8: 99-F7 (scFv, V domains shown)
VH: QVQLVQSGGGVVQPGRSLRLSCAASGFTFSSYGMHWVRQAPGKGLEWVAFIRYDGSNKYYADSVKGRFTISRDNSKNTLYLQMKSLRAEDTAVYYCKTHGSHDNWGQGTMVTVSS
VL: SYVLTQPPSVSGTPGQRVTISCSGGRSNIGSNTVKWYQQLPGTAPKLLIYGNDQRPSGVPDRFSGSKSGTSASLAITGVQAEDEADYYCQSYPNSYPISRVFGTGTKVTVLG
**Q.** For B8, which koff [2] is on record?
**A.** 0.0048 s⁻¹
